± gives the half width of the 95% confidence interval.
Tests used:
[1] = folding stability dG unfold from trypsin proteolysis; higher = more stable
In short: (§1)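 Digests were run with trypsin and chymotrypsin at 11 concentrations in threefold dilutions, plus a no-protease condition, on designed mini-proteins in a PA-tagged cDNA display construct. The mini-proteins were under 80 residues, had no cysteine, and were kept only when AlphaFold2 dimer inter-PAE was above 15. After sequencing, Bayesian fitting of the counts gave K50, from which unfolding free energy was derived against a sequence-predicted unfolded-state K50 and a shared folded-state K50, per protease or combined.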

[2] = folding stability dG unfold (combined trypsin and chymotrypsin); higher = more stable
In short: as §1

[3] = folding stability dG unfold from chymotrypsin proteolysis; higher = more stable
In short: as §1

## SAGGSAGGSAGGKKITIVMSAEEAEALAKALEDAGIDIDNLKIEVVKVEFPPALPAEDKSAGGSAGGSAGGS [r10_602_TrROS_Hall]
[1]
  folding stability dG unfold: 5.02 ± 0.121 kJ/mol
[2]
  folding stability dG unfold: 6.58 ± 0.31 kJ/mol
[3]
  folding stability dG unfold: 7.54 ± 0.213 kJ/mol

## SAGGSKPVKVTVRRDPKNPDKWTVTVTAGDKTTTLTFDPNDEAAVRAALEAALPADEVLEELEFEDLLSAGG [r13_519_JUSTAS]
[1]
  folding stability dG unfold: 11.7 ± 0.502 kJ/mol
[2]
  folding stability dG unfold: 12.1 ± 0.711 kJ/mol
[3]
  folding stability dG unfold: 12.5 ± 0.18 kJ/mol

## SSSTVTVTVTFPDGTVVTVDFTGSLAEVEAAVREWVRQYAAEQGLDPREVRVTITFADDGTTRERTLPLRSA [r9_1193_JUSTAS]
[1]
  folding stability dG unfold: 3.85 ± 0.18 kJ/mol
[2]
  folding stability dG unfold: 8.54 ± 0.36 kJ/mol
[3]
  folding stability dG unfold: 10.1 ± 0.146 kJ/mol

## SAGGSAGGANDPEMPKPKRVEITIPPDEEIRNPNGKEMPVEQAREYAEYLADRYGIDVEITISPSAGGSAGG [r6_162_TrROS]
[1]
  folding stability dG unfold: -1.7 ± 1.21 kJ/mol
[2]
  folding stability dG unfold: -0.845 ± 1.72 kJ/mol
[3]
  folding stability dG unfold: 0.899 ± 1.8 kJ/mol

## SAGGSAGGSASSVVTPISHPDGRTGTKVTLPNGTVIEFIFYPDGTIIEINHSNNTTTVTPLVSAGGSAGGSA [r18_285_JUSTAS]
[1]
  folding stability dG unfold: 6.03 ± 0.167 kJ/mol
[2]
  folding stability dG unfold: 6.4 ± 0.13 kJ/mol
[3]
  folding stability dG unfold: 6.47 ± 0.0711 kJ/mol

## SAGGMPLEDMSLEELKARLEEALEELRAKLPPGEKKTLTLTVTLTVVDKETGETRTVTLTVTLTLPAPSAGG [r13_385_TrROS_Hall]
[1]
  folding stability dG unfold: 14.3 ± 0.268 kJ/mol
[2]
  folding stability dG unfold: 17.4 ± 0.318 kJ/mol
[3]
  folding stability dG unfold: 18.3 ± 0.218 kJ/mol

## SAGGSAGGSAKRKVIEVDSLEEIKKAIEEAKEGEVVEIVVRDPETNETYTLKVVDGKIVLIPSAGGSAGGSA [r18_407_TrROS_Hall]
[1]
  folding stability dG unfold: 5.53 ± 0.163 kJ/mol
[2]
  folding stability dG unfold: 9.48 ± 0.205 kJ/mol
[3]
  folding stability dG unfold: 11.15 ± 0.0586 kJ/mol

## SAGGSAKIVIKPDGTIEVEVNGKTFTFPPGAEIEIEEKDGELVLRIRLFNKDGKEVEEFEVTVRIESAGGSA [r15_424_TrROS_Hall]
[1]
  folding stability dG unfold: 18.2 ± 0.795 kJ/mol
[2]
  folding stability dG unfold: 22.9 ± 0.753 kJ/mol
[3]
  folding stability dG unfold: 23.1 ± 0.753 kJ/mol

## SAGGSAEETIEIEIPLEDLKPRKDGKLTEEEIKERLRKLIEELTGKKPKEITVERDENGTLRITIRSAGGSA [r15_562_TrROS_Hall]
[1]
  folding stability dG unfold: 6.11 ± 0.544 kJ/mol
[2]
  folding stability dG unfold: 9.2 ± 0.962 kJ/mol
[3]
  folding stability dG unfold: 10.6 ± 0.753 kJ/mol

## SAGGSAGGSEKEIVLVVKSKEDALKAAEELAKALGLEVEVEVIEVKTLENGEKYVVVKITIKDSAGGSAGGS [r12_924_TrROS_Hall]
[1]
  folding stability dG unfold: 15.7 ± 0.669 kJ/mol
[2]
  folding stability dG unfold: 15.7 ± 0.837 kJ/mol
[3]
  folding stability dG unfold: 15.5 ± 0.381 kJ/mol

## DDWVTLPVEIWIPVRNPDGKPLTPEQVKETANSIRNELARNHGIDVEVDVKVEPVGPNGYYRINATVTIRPS [r1_231_TrROS]
[1]
  folding stability dG unfold: 9.35 ± 0.418 kJ/mol
[2]
  folding stability dG unfold: 11.4 ± 0.586 kJ/mol
[3]
  folding stability dG unfold: 12.5 ± 0.23 kJ/mol

## SAGGITIRGMPWEWAEEIAKTLAQEGYRLKDVEVEEDPPDGYYSVTVQQRDPETGKPKKPVTISIPPSAGGS [r16_750_TrROS]
[1]
  folding stability dG unfold: 2.48 ± 0.544 kJ/mol
[2]
  folding stability dG unfold: 2.15 ± 1.8 kJ/mol
[3]
  folding stability dG unfold: 0.322 ± 1.84 kJ/mol

## SAGGSAGGSAGGKIKPGQTVIFIELKITKQRDGPDGKRYMEFEIERIDIFRIPPGDNILSAGGSAGGSAGGS [r10_826_TrROS]
[1]
  folding stability dG unfold: 10.7 ± 0.285 kJ/mol
[2]
  folding stability dG unfold: 12.7 ± 0.544 kJ/mol
[3]
  folding stability dG unfold: 13.3 ± 0.544 kJ/mol

## SAGGSAGGSAGGMSITISVPEKTATIEIPGLGKTITIPPGETITVPIPNVPPFKITTEPPSAGGSAGGSAGG [r11_939_JUSTAS]
[1]
  folding stability dG unfold: 3.18 ± 0.247 kJ/mol
[2]
  folding stability dG unfold: 3.06 ± 0.36 kJ/mol
[3]
  folding stability dG unfold: 3.57 ± 0.184 kJ/mol

## SAGGSAEELAKELAEKEGVKEVKVTVIKNKNGKLVLKVENKETNKTYEIELPEGAEVVEEITLKVKSAGGSA [r2_74_TrROS_Hall]
[1]
  folding stability dG unfold: 0.445 ± 0.36 kJ/mol
[2]
  folding stability dG unfold: 3.86 ± 0.418 kJ/mol
[3]
  folding stability dG unfold: 5.14 ± 0.255 kJ/mol

## SAGGMNIVTYTLTIPPGRIEEVKEAIEALGIPVVKVELVEVLPGEGLAIVKIEVPNNVDPEKVKKALSSAGG [r13_725_JUSTAS]
[1]
  folding stability dG unfold: 16.6 ± 0.795 kJ/mol
[2]
  folding stability dG unfold: 17.1 ± 0.502 kJ/mol
[3]
  folding stability dG unfold: 17.3 ± 0.586 kJ/mol

## SAGGPKPKTYDIMIPFDSEEEAEKLMENPEWAKEIAKEIAPLFPGYDIKVEVSWHPETGYFMVKITVSAGGS [r16_320_TrROS]
[1]
  folding stability dG unfold: 13.4 ± 0.753 kJ/mol
[2]
  folding stability dG unfold: 16.8 ± 0.544 kJ/mol
[3]
  folding stability dG unfold: 17.2 ± 0.753 kJ/mol

## SAGGSPVYKVEIRMTIVDKNGTVKSIVNLELTFKTEEEIEKFLESIPKETVVEIEIEKRTVEPPEKLSAGGS [r16_677_JUSTAS]
[1]
  folding stability dG unfold: 8.87 ± 0.23 kJ/mol
[2]
  folding stability dG unfold: 5.91 ± 0.46 kJ/mol
[3]
  folding stability dG unfold: 2.92 ± 0.285 kJ/mol

## SAGGSAGGMKVRVKIEVEGKTLEIEIEVPEEKREEALEKAKKLAEKLAEELDVEVKIVEVEEEPSAGGSAGG [r6_459_TrROS_Hall]
[1]
  folding stability dG unfold: 4.36 ± 0.142 kJ/mol
[2]
  folding stability dG unfold: 8.41 ± 0.502 kJ/mol
[3]
  folding stability dG unfold: 10.1 ± 0.305 kJ/mol

## SNKKWRTIELDFWFRTPEQAREWANNLARRLPPDNIDSISVEVEPFPVRKNGEPVGPVYRFKLTIMVRPESA [r9_605_TrROS]
[1]
  folding stability dG unfold: 9.74 ± 0.259 kJ/mol
[2]
  folding stability dG unfold: 10.9 ± 0.381 kJ/mol
[3]
  folding stability dG unfold: 11.8 ± 0.134 kJ/mol

— the supplement of paper PMC12764529
